{
  "source": "patent US20230312753A1",
  "about": "(IMMUNORIZON, published 2023)",
  "binders": {"B1": {"name": "IM-1155 Tribody, additional CD3 epsilon mutant variant (other)", "heavy": "GGSGGSEVQLVESGGGLVQPGGSLRLSCAASGFTFNGGSGGWVRQAPGKGLEWVAGGGSGGGGSGGGSGGSGGGRFTISRDDSKNTLYLQMNSLRAEDTAVYYCVRGGGSGGSGGSGGGGWGQGTMVTVSSASTKGPSVFPLAPSSKSTSGGTAALGCLVKDYFPEPVTVSWNSGALTSGVHTFPAVLQSSGLYSLSSVVTVPSSSLGTQTYICNVNHKPSNTKVDKRVEPKSCPPCGGGGSDIQMTQSPSSLSASVGDRVTITCRASENIYSYLAWYQQKPGKAPKLLIYNAKTLAEGVPSRFSGSGSGTDFTLTISSLQPEDFATYYCQHHYGTPRTFGGGTKVEIKGGGGSGGGGSGGGGSGGGGSQVQLVQSGAEVKKPGASVKVSCKASGYTFTSYWMNWVRQAPGQGLEWMGRIDPYDSETHYAQKLQGRVTMTTDTSTSTAYMELRSLRSDDTAVYYCARGGYDFDVGTLYWFFDVWGQGTTVTVSS", "light": "GGSGGSQAVVTQEPSLTVSPGGTVTLTCGSSGGGSGGGGSGGWVQQKPGQAPRGLIGGGSGGGSGTPARFSGSLLGGKAALTLSGVQPEDEAEYYCGGGGSGGGGFGGGTKLTVLGQPKAAPSVTLFPPSSEELQANKATLVCLISDFYPGAVTVAWKADSSPVKAGVETTTPSKQSNNKYAASSYLSLTPEQWKSHRSYSCQVTHEGSTVEKTVAPTECPPCSGGGSDIQMTQSPSSLSASVGDRVTITCRASQGISNYLAWFQQKPGKAPKSLIYRANRLQSGVPSRFSGSGSGTDFTLTISSLQPEDVATYYCLQYDDFPWTFGQGTKLEIKGGGGSGGGGSGGGGSGGGGSQVQLVQSGAEVKKPGASVKVSCKASGYTFTSFWMHWVRQAPGQGLEWMGRIDPNRGGTEYNEKAKSRVTMTADKSTSTAYMELSSLRSEDTAVYYCAGGNPYYPMDYWGQGTTVTVSS"}},
  "target": "T1, NKG2A/CD94 on CHO cells (CHOK1-NKG2A-CD94) (human, UniProt P26715 1-233; Q13241 1-179, limits assumed)",
  "T1 construct": "whole, on cells; also called CHO cells over-expressing NKG2A/CD94; CHO cell line over expressing ectopic NKG2A",
  "T1 sequence (P26715 whole entry, chain 1 of 2)": "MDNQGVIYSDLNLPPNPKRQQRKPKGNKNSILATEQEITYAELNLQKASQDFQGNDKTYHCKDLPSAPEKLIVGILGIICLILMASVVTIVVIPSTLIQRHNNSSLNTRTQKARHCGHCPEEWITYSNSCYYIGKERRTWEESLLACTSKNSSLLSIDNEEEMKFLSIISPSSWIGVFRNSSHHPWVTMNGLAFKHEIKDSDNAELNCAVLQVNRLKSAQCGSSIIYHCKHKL",
  "T1 sequence (Q13241 whole entry, chain 2 of 2)": "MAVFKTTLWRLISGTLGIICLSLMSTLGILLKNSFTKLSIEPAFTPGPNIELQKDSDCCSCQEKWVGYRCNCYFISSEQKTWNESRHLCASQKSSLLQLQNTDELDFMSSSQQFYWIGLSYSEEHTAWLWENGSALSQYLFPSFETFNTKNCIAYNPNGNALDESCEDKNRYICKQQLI",
  "assay": "competitive FACS receptor-ligand blocking assay on CHOK1-NKG2A-CD94 cells, labelled ligand HLA-E PE (FIG. 49)",
  "data": [
    {"binder": "B1", "values": [
      {"measurement": "IC50", "value": 60, "unit": "nM"}
    ]}
  ]
}
